Laboratory results published in patent US20240192215A1 (E AND S HEALTHCARE, published 2024).
Values belong to the binder of their own block, whether it stands above or below them.

How the values were obtained:
Peptide_005 [1] = biological target: T1, Peptide_005 (human); test: peptide microarray, 0.0016 ug/mL
T1 construct: 15-mer on microarray; not native form, recombinant insert region
T1 peptide: ADVHSQHHHHHHHHV
Protocol: (§1) 5, 1, 0.2, 0.04, 0.008 and 0.0016 μg/mL serial dilutions were incubated on a single multi-well microarray slide at 30° C. for 1 hour. The slide includes 21 individual mini-arrays (one mini-array per sample dilution).
(§2) DyLight 650 was used as a label. False-positive binding to a peptide was evaluated by performing one additional control incubation in which only a secondary antibody was applied on the same microarray slide. Before performing each step, the microarrays were washed with a washing buffer.

Peptide_004 [2] = biological target: T2, Peptide_004 (human); test: peptide microarray, 0.0016 ug/mL
T2 construct: 15-mer on microarray; not native form, recombinant insert region
T2 peptide: AADVHSQHHHHHHHH
Protocol: as §1, §2

[3] = biological target: T3, human thioredoxin-1 (Trx1) (human, UniProt P10599 1-105); test: one site - total fit (Prism) of the ELISA of panel (a); the cell has no unit, the concentrations of panel (a) are in nM; paragraph 183 prints it rounded as 1.1x10^-11 [b]
T3 construct: also called hTrx1; hTRX1
T3 sequence (looked up): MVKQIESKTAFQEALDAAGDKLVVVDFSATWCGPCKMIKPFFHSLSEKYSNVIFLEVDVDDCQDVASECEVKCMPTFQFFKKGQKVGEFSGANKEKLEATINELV
Protocol: (§3) 100 μl of a coating buffer and 100 ng of Trx1 were mixed and dispensed to each well, and then reacted at 4° C. for 16 hours or more. After the reaction solution was removed, 200 μl of PBSA was dispensed to each well and reacted at 37° C. for 120 minutes. […] After the reaction solution was removed, washing was performed by dispensing 200 μl of a washing buffer to each well. The above-described process was performed two times.
(§4) After the reaction solution was removed, washing was performed by dispensing 200 μl of a washing buffer to each well. The above-described process was performed three times.

Peptide_005 [4] = biological target: T1, Peptide_005; test: peptide microarray
Protocol: as §1, §2
(§5) MMC2 is the same as the average value of all three cases on a microarray except when the coefficient of variation (CV), which is the standard deviation divided by the average value, is larger than 0.5. In this case, the average of the two closest values (MC2) is assigned to MMC2. The thick black line in the heatmap indicates the culture of a control only using a secondary anti-mouse IgG antibody. The culture of individual antibody samples is indicated by a thin blue line. […] However, since Peptide_004 and Peptide_005 are not native forms, these peptides were excluded from an epitope candidate group.

Peptide_004 [5] = biological target: T2, Peptide_004; test: peptide microarray
Protocol: as §1, §2, §5

Peptide_051 = biological target: T4, Peptide_051 (human); test: peptide microarray, 0.0016 ug/mL
T4 construct: 15-mer of hTrx1 on microarray
T4 peptide: PCKMIKPFFHSLSEK
Protocol: as §1, §2

Peptide_025 = biological target: T5, Peptide_025 (human); test: peptide microarray, 0.0016 ug/mL
T5 construct: 15-mer of hTrx1 on microarray
T5 peptide: KTAFQEALDAAGDKL
Protocol: as §1, §2

Peptide_045 = biological target: T6, Peptide_045 (human); test: peptide microarray, 0.0016 ug/mL
T6 construct: 15-mer of hTrx1 on microarray
T6 peptide: SATWCGPCKMIKPFF
Protocol: as §1, §2

Peptide_084 = biological target: T7, Peptide_084 (human); test: peptide microarray, 0.0016 ug/mL
T7 construct: 15-mer of hTrx1 on microarray
T7 peptide: SECEVKCMPTFQFFK
Protocol: as §1, §2

Peptide_023 = biological target: T8, Peptide_023 (human); test: peptide microarray, 0.0016 ug/mL
T8 construct: 15-mer of hTrx1 on microarray
T8 peptide: ESKTAFQEALDAAGD
Protocol: as §1, §2

Peptide_095 = biological target: T9, Peptide_095 (human); test: peptide microarray, 0.0016 ug/mL
T9 construct: 15-mer of hTrx1 on microarray
T9 peptide: QFFKKGQKVGEFSGA
Protocol: as §1, §2

Peptide_094 = biological target: T10, Peptide_094 (human); test: peptide microarray, 0.0016 ug/mL
T10 construct: 15-mer of hTrx1 on microarray
T10 peptide: FQFFKKGQKVGEFSG
Protocol: as §1, §2

Peptide_019 = biological target: T11, Peptide_019 (human); test: peptide microarray, 0.0016 ug/mL
T11 construct: 15-mer of hTrx1 on microarray
T11 peptide: VKQIESKTAFQEALD
Protocol: as §1, §2

Peptide_013 = biological target: T12, Peptide_013 (human); test: peptide microarray, 0.0016 ug/mL
T12 construct: 15-mer on microarray; not native form, includes recombinant insert region
T12 peptide: HHHHHHVKQIESKTA
Protocol: as §1, §2

Peptide_022 = biological target: T13, Peptide_022 (human); test: peptide microarray, 0.0016 ug/mL
T13 construct: 15-mer of hTrx1 on microarray
T13 peptide: IESKTAFQEALDAAG
Protocol: as §1, §2

Peptide_085 = biological target: T14, Peptide_085 (human); test: peptide microarray, 0.0016 ug/mL
T14 construct: 15-mer of hTrx1 on microarray
T14 peptide: ECEVKCMPTFQFFKK
Protocol: as §1, §2

Peptide_024 = biological target: T15, Peptide_024 (human); test: peptide microarray, 0.0016 ug/mL
T15 construct: 15-mer of hTrx1 on microarray
T15 peptide: SKTAFQEALDAAGDK
Protocol: as §1, §2

Peptide_092 = biological target: T16, Peptide_092 (human); test: peptide microarray, 0.0016 ug/mL
T16 construct: 15-mer of hTrx1 on microarray
T16 peptide: PTFQFFKKGQKVGEF
Protocol: as §1, §2

Peptide_021 = biological target: T17, Peptide_021 (human); test: peptide microarray, 0.0016 ug/mL
T17 construct: 15-mer of hTrx1 on microarray
T17 peptide: QIESKTAFQEALDAA
Protocol: as §1, §2

Peptide_093 = biological target: T18, Peptide_093 (human); test: peptide microarray, 0.0016 ug/mL
T18 construct: 15-mer of hTrx1 on microarray
T18 peptide: TFQFFKKGQKVGEFS
Protocol: as §1, §2

Peptide_012 [6] = biological target: T19, Peptide_012 (human); test: peptide microarray, 0.0016 ug/mL
T19 construct: 15-mer on microarray; not native form, includes recombinant insert region
T19 peptide: HHHHHHHVKQIESKT
Protocol: as §1, §2

Peptide_020 = biological target: T20, Peptide_020 (human); test: peptide microarray, 0.0016 ug/mL
T20 construct: 15-mer of hTrx1 on microarray
T20 peptide: KQIESKTAFQEALDA
Protocol: as §1, §2

Peptide_014 = biological target: T21, Peptide_014 (human); test: peptide microarray, 0.0016 ug/mL
T21 construct: 15-mer on microarray; not native form, includes recombinant insert region
T21 peptide: HHHHHVKQIESKTAF
Protocol: as §1, §2

Peptide_086 = biological target: T22, Peptide_086 (human); test: peptide microarray, 0.0016 ug/mL
T22 construct: 15-mer of hTrx1 on microarray
T22 peptide: CEVKCMPTFQFFKKG
Protocol: as §1, §2

Peptide_018 [7] = biological target: T23, Peptide_018 (human); test: peptide microarray, 0.0016 ug/mL
T23 construct: 15-mer on microarray; not native form, includes recombinant insert region; also called HVKQIESKTAFQEAL
T23 peptide: HVKQIESKTAFQEAL
Protocol: as §1, §2

Peptide_015 = biological target: T24, Peptide_015 (human); test: peptide microarray, 0.0016 ug/mL
T24 construct: 15-mer on microarray; not native form, includes recombinant insert region
T24 peptide: HHHHVKQIESKTAFQ
Protocol: as §1, §2

Peptide_012 [8] = biological target: T19, Peptide_012; test: peptide microarray
Protocol: as §1, §2, §5

Peptide_018 [9] = biological target: T23, Peptide_018; test: peptide microarray
Protocol: as §1, §2, §5

[10] = biological target: T3, human thioredoxin-1 (Trx1); test: one site - total fit (Prism) of the ELISA of panel (a); the cell has no unit, the concentrations of panel (a) are in nM; paragraph 183 prints it rounded as 1.3x10^-10 [b]
Protocol: as §3, §4

signal (blank-control = 1) (Peptide_005 [1]): 1.6
signal (blank-control = 1) (Peptide_004 [2]): 0.99
Kd [3]: 0.0112 nM
signal, fold of the average background level (Peptide_005 [4]): ~8 fold
signal, fold of the average background level (Peptide_004 [5]): ~8 fold
B1: monoclonal antibody B266-1 (antibody, human IgG1)
light: QIVLTQSPAIMSASPGEKVTMTCSASSRISYMYWYQQKPGTSPKRWIYDTSKLASGVPARFSGSGSGTSYSLTISTMEAEDAATYYCHQRSSYPTFGAGTKLELKSVAAPSVFIFPPSDEQLKSGTASVVCLLNNFYPREAKVQWKVDNALQSGNSQESVTEQDSKDSTYSLSSTLTLSKADYEKHKVYACEVTHQGLSSPVTKSFNRGEC
heavy: not shown
notes: B266 with the Fc part changed to human IgG1; also called B266-1 (Trx1-hIgG1); B266-1 (hTrx1-hIgG1)

signal (blank-control = 1) (Peptide_051): 0.58
signal (blank-control = 1) (Peptide_025): 0.88
signal (blank-control = 1) (Peptide_045): 4.08
signal (blank-control = 1) (Peptide_084): 0.97
signal (blank-control = 1) (Peptide_023): 0.78
signal (blank-control = 1) (Peptide_095): 1.07
signal (blank-control = 1) (Peptide_094): 0.62
signal (blank-control = 1) (Peptide_019): 0.85
signal (blank-control = 1) (Peptide_013): 0.75
signal (blank-control = 1) (Peptide_022): 0.72
signal (blank-control = 1) (Peptide_085): 0.65
signal (blank-control = 1) (Peptide_024): 0.72
signal (blank-control = 1) (Peptide_092): 1.86
signal (blank-control = 1) (Peptide_021): 0.73
signal (blank-control = 1) (Peptide_093): 1.12
signal (blank-control = 1) (Peptide_012 [6]): 0.81
signal (blank-control = 1) (Peptide_020): 0.71
signal (blank-control = 1) (Peptide_014): 0.69
signal (blank-control = 1) (Peptide_086): 0.82
signal (blank-control = 1) (Peptide_018 [7]): 0.68
signal (blank-control = 1) (Peptide_015): 0.58
signal, fold of the average background level (Peptide_012 [8]): ~7 fold
signal, fold of the average background level (Peptide_018 [9]): ~7 fold
Kd [10]: 0.133 nM
B2: monoclonal antibody B264 (antibody, mouse IgG1, kappa, V domains shown)
VH: QVQLQQSGAELARPGASVKMSCKASGYTFTSYTMHWVKQRPGQGLEWIGYINPTSDYTNYNQKFKDKATLTADKSSSTAYMQLSSLTSEDSAVYFCASEGGFLYYFDYWGQGTTLTVSS
VL: DVLMTQTPLSLPVSLGDQASISCRSSQSIVHSNGNTYLEWYLQKPGQSPKLLIYKVSNRFSGVPDRFSGSGSGTDFTLKISRVEAEDLGVYYCFQGSHVPYTFGGGTKLEIKR
notes: also called AB264; B264 (Trx1-mIgG1)
